Experimental data published in article PMC9030869, “Interplay between Alba and Cren7 Regulates Chromatin Compaction in Sulfolobus solfataricus” (Biomolecules, 2022).

Target: T1, Sulfolobus solfataricus Alba1 (S. solfataricus, UniProt P60849 1-97)
T1 construct: Alba1 of Sulfolobus solfataricus; construct obtained from Dr. Malcolm White (University of St. Andrews); It was obtained from Dr. Malcolm White; source: E. coli BL21(DE3), purified (HiTrap SPHP cation exchange, size exclusion chromatography)
T1 sequence (looked up): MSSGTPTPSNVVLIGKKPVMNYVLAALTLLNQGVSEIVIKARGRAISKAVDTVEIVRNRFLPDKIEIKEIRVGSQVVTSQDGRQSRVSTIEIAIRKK
Assay: SEC; equimolar amounts (~100 µM) of Alba1 and Alba2 mixed, then run on a TSKgel G3000SWxl column with 150 mM NaCl in Buffer A as mobile phase
Conditions: both partners purified

B1: Sulfolobus solfataricus Alba2 (natural protein, S. solfataricus, UniProt Q97ZF4 1-89, looked up)
chain: MTEKLNEIVVRKTKNVEDHVLDVIVLFNQGIDEVILKGTGREISKAVDVYNSLKDRLGDGVQLVNVQTGSEVRDRRRISYILLRLKRVY
notes: Alba2 of Sulfolobus solfataricus, homologue of Alba1; construct obtained from Dr. Malcolm White (University of St. Andrews); It was obtained from Dr. Malcolm White; source: E. coli BL21(DE3), purified (HiTrap SPHP cation exchange, size exclusion chromatography)
B1: binds.
